Results reported in paper PMC7949164.

T1: myc-tagged mouse Ccr1 Y18F mutant (mouse) (UniProt P51675)
T1 sequence: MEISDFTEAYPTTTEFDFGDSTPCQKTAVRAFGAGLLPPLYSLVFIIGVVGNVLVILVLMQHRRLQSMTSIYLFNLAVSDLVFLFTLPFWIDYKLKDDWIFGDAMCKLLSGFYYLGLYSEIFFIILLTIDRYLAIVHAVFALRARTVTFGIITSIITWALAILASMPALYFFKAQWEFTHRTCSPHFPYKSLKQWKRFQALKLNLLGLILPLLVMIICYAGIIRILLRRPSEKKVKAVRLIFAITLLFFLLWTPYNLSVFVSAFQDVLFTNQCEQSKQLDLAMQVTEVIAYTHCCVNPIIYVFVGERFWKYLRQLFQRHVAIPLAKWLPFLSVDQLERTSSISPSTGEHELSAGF


Molecular target: T1, myc-tagged mouse Ccr1 Y18F mutant (mouse)

| internalisation: cell surface receptor left (MFI in % of buffer alone) after 100 nM chemokine, FACS, L1.2 cells (% cell surface receptor) | Molecule |
| --- | --- |
| 20 | recombinant mouse Ccl9/10 (ligand) |
| 35 | recombinant mouse Ccl3 (ligand) APYGADTPTACCFSYSRKIPRQFIVDYFETSSLCSQPGVIFLTKRNRQICADSKETWVQEYITDLELNA |
